We go through two molecules from patent publication US20250002574A1 (SUNSHINE LAKE PHARMA, published 2025).

Experiment [1] deals with T1, recombinant CLC (R&D systems, 962-CL-050) (UniProt Q9UBD9 28-225).
T1 sequence (looked up): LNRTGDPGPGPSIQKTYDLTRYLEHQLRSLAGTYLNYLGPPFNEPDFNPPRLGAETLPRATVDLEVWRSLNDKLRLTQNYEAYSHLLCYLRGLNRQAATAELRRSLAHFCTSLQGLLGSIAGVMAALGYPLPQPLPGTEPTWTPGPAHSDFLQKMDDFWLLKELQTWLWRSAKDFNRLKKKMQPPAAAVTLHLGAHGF
The experiment is described as follows: ELISA, cytokine coated. (In general: ELISA stands for enzyme-linked immunosorbent assay.)

Experiment [2] addresses T2, recombinant CT-1 (R&D systems, 612-CD-010) (UniProt Q16619 2-201).
T2 sequence (looked up): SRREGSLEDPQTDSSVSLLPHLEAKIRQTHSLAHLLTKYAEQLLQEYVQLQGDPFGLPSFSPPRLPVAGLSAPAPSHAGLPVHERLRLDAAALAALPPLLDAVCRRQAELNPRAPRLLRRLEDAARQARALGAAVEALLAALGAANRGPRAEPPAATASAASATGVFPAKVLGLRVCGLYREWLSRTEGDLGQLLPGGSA
The experiment is described as follows: ELISA, cytokine coated.

Experiment [3] deals with T3, recombinant IL-6 (Sinobiological-10395-HNAE) (UniProt P05231 30-212). Put plainly: ELISA, cytokine coated.
Experiment [4] deals with T4, recombinant LIF (Peprotech, 300-05) (UniProt P15018 23-202). The experiment is described as follows: ELISA, cytokine coated.
The target in experiment [5] is T5, recombinant OSM (Genscript-z03132) (UniProt P13725 26-221, limits assumed).
T5 sequence (looked up): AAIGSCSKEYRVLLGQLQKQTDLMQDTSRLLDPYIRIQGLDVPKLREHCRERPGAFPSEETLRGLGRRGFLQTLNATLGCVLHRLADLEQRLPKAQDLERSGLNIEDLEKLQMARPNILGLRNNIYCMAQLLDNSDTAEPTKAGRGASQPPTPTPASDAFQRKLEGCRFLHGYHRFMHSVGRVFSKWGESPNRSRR
The experiment is described as follows: ELISA, cytokine coated.

The target in experiment [6] is T6, recombinant IL-27 (R&D systems, 2526-IL-010) (UniProt Q8NEV9 29-243; Q14213 21-229).
T6 construct: the bought product may be a single-chain fusion
T6 sequence (looked up) 1: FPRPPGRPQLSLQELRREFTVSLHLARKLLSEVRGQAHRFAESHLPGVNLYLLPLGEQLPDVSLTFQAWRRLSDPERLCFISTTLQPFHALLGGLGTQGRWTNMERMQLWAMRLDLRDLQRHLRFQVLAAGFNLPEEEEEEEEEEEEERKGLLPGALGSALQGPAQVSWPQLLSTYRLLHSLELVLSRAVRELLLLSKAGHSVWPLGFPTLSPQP
T6 sequence (looked up) 2: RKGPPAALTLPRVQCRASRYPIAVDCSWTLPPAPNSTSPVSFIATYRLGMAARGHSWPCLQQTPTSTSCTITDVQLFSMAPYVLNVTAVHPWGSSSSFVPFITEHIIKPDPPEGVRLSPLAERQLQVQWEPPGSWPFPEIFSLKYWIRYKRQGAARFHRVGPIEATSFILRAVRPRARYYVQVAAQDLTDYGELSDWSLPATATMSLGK
The experiment is described as follows: ELISA, cytokine coated.

In experiment [7] the target is T7, recombinant CNTF (R&D systems, 257-NT-010) (UniProt P26441 2-200).
T7 sequence (looked up): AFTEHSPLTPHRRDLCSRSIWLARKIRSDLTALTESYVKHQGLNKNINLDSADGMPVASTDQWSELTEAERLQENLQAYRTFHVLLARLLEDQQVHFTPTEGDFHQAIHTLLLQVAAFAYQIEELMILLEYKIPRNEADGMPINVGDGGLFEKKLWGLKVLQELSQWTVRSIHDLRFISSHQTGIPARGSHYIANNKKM
The experiment is described as follows: ELISA, cytokine coated.

Experiment [8] concerns the target T8, recombinant IL-31 (Peprotech, 200-31) (UniProt Q6EBC2 24-164).
T8 sequence (looked up): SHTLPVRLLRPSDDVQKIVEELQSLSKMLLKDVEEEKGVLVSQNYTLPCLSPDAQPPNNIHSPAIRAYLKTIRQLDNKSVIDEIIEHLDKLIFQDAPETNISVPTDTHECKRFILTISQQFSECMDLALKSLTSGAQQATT
The experiment is described as follows: ELISA, cytokine coated.

The target in experiment [9] is T9, IL-11-Fc protein (UniProt P20809 22-199, limits assumed).
T9 construct: also called IL-11 recombinant protein with Fc tag; not shown: Fc tag
T9 sequence (looked up): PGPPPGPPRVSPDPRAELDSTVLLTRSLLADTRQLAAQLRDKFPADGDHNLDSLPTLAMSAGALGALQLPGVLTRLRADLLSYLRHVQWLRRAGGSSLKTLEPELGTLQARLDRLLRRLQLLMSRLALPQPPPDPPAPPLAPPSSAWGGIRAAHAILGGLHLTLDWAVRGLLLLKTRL
Put plainly: flow cytometry competition: IL-11-Fc plus antibody on membrane-IL-11R CHO cells. From the text:
The secondary antibody (Goat-anti-Fc-FITC) (Abcam, ab98529) conjugated with FITC fluorophore was used for detection.
(Flow cytometry measures light scatter and fluorescence of single cells or particles in a stream.)

For experiment [10], the target named is T1, recombinant CLC (R&D systems, …). Put plainly: ELISA, cytokine coated. The source holds these as a separate data set.
Experiment [11] concerns the target T2, recombinant CT-1 (R&D systems, …). Put plainly: ELISA, cytokine coated. The source holds these as a separate data set.
For experiment [12], the target named is T10, recombinant IL-11 (LSBio, LS-G132887-10) (UniProt P20809 22-199).
T10 sequence (looked up): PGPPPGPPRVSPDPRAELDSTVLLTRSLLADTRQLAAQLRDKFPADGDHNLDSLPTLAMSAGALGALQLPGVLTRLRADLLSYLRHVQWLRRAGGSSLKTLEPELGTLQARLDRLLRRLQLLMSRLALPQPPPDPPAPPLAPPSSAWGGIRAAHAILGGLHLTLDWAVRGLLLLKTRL
The experiment is described as follows: ELISA, cytokine coated.

The target of experiment [13] is T3, recombinant IL-6 …. The experiment is described as follows: ELISA, cytokine coated. The source holds these as a separate data set.
Experiment [14] concerns the target T4, recombinant LIF (Peprotech, 300-05). Put plainly: ELISA, cytokine coated. The source holds these as a separate data set.
In experiment [15] the target is T5, recombinant OSM (Genscript-z03132). Put plainly: ELISA, cytokine coated. The source holds these as a separate data set.
Experiment [16] deals with T6, recombinant IL-27 (R&D systems, …). Put plainly: ELISA, cytokine coated. This is another data set of the same source.
Experiment [17] has as its target T7, recombinant CNTF (R&D systems, …). The experiment is described as follows: ELISA, cytokine coated. This is another data set of the same source.
For experiment [18], the target named is T8, recombinant IL-31 (Peprotech, 200-31). Put plainly: ELISA, cytokine coated. The source holds these as a separate data set.
Experiment [19] concerns the target T11, recombinant human protein antigen hu-IL-11-His tag (human, UniProt P20809 22-199).
T11 construct: also called IL-11-His protein; not shown: His tag
T11 sequence (looked up): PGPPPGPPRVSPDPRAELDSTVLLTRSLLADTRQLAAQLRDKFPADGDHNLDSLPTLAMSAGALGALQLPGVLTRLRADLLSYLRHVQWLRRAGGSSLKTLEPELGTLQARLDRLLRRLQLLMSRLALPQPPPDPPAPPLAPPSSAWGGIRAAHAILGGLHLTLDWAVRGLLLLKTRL
Put plainly: BLI (Octet QKe), IL-11 (His tag) on Ni-NTA sensor, antibody as analyte. The method, then:
The analytes were diluted in 7 concentration gradients, the binding time was 60 s and the dissociation time was 1000 s. The buffer was 20 mM PBS, 0.15M NaCl, 0.1% BSA, 0.05% Tween 20, pH 7.4. […] In this example, Pall ForteBio (Octet QKe) instrument was used to determine the affinity of antibodies for antigens.
Background: In BLI a coated tip is dipped into the sample, and binding shifts an interference pattern.

T4 sequence (P15018 23-202 limits assumed): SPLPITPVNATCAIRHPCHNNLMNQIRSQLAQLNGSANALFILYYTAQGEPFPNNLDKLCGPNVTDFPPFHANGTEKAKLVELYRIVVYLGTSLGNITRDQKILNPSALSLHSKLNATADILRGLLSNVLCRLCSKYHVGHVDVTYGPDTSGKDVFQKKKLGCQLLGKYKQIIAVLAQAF

B1: 5-20E11-5F2 (recombinant, expressed in CHO, Example 6) (antibody, human IgG1, kappa, V domains shown)
VH: QVQLQQSGAELVRPGTSAKISCKASDYTFTNYWLGWLKQRPGHGLEWIGHIYPGGGYTNYNEKFKGKATLTADTSSSTAYMQLSSLTSEDSAVYFCARVRSGNDALDFWGQGTSVTVSS
VL: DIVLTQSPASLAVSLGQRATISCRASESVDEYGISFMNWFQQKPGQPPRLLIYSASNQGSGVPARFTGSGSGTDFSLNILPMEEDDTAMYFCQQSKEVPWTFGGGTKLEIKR
As to B1, the binding result in experiment [1], in experiment [2], in [3], in experiment [4], in experiment [5] and in experiment [6] was “no binding” each time. The binding result in [7] and in experiment [8] was “no binding” throughout. The IC50 in experiment [9] was around 21 µg/mL. The OD450 nm was determined as 0.033 OD450 in [10]; 0.034 OD450 in experiment [11]; 1.93 OD450 in experiment [12]; 0.049 OD450 in experiment [13]; 0.037 OD450 in experiment [14]; 0.045 OD450 in experiment [15]. Besides, the OD450 nm stood at 0.048 OD450 in experiment [16], 0.036 OD450 in experiment [17] and 0.036 OD450 in experiment [18]. For the same molecule, the Kd in experiment [19] is 0.069 nM. In addition, in [19], the off-rate (koff) was 1.21e-05 s⁻¹. The kon in experiment [19] was found to be 175000 M⁻¹ s⁻¹.

B2: 3-6A4 (recombinant, expressed in CHO, Example 6) (antibody, human IgG1, kappa, V domains shown)
VH: QIQLVQSGPELKKPGETVKISCKASGYTFTTNGINWVKQAAGKGLKWMGWINTNTGEPTNAEELKGRFAFSLETSASTAYLQINNLKNEDAAIYFCAREGAFGLDYWGQGTSVTVSS
VL: SIVMTQSPKFLLVSAGDRVIITCKASQSVSNDVVWYQQKPGQSPKLLIYYGSHRNTGVPTRFTGSGYGTDFTFTISTVQAEDLAVYFCQQDFFSPWTFGGGTKLEIKR
With B2, the binding result in [1], in experiment [2], in experiment [3], in experiment [4], in [5] and in [6] was “no binding” throughout. For the same molecule, the binding result in [7] and in [8] was “no binding” each time. Moreover, in experiment [9], the IC50 was around 7 µg/mL. Further, the OD450 nm stood at 0.042 OD450 in [10]; 0.041 OD450 in experiment [11]; 1.88 OD450 in experiment [12]; 0.039 OD450 in experiment [13]; 0.084 OD450 in experiment [14]; 0.102 OD450 in [15]. Also, the OD450 nm in experiment [16] was found to be 0.035 OD450; in [17] it was 0.064 OD450; in experiment [18] it was 0.088 OD450. Moreover, the dissociation constant (Kd) in experiment [19] came to 0.0393 nM. Moreover, the dissociation rate constant (koff) in [19] was 4.16e-05 s⁻¹. The kon in experiment [19] amounted to 1.06e+06 M⁻¹ s⁻¹.

Usually IC50 stands for the point on the concentration scale where inhibition reaches its midpoint. By Kd is commonly meant the free concentration of one partner at which half of the binding sites on the other are occupied at equilibrium, for simple one-to-one binding. The term koff denotes the first-order rate constant of dissociation. In general, kon refers to the second-order rate constant of association.
